We go through six substances from patent US20220056119A1.

Assay [1] deals with activin Type II receptors (ActRIIA and ActRIIB) on A204/CAGAx12-Luc cells. The assay is described as follows: cell-based or functional assay.
Assay [2] deals with Activin A (R&D Systems, #338-AC) (human) (UniProt P08476). The assay is described as follows: SPR blocking: 5 nM Activin A + 30 nM binder over hActRIIB-hFc (Control 4) surface.
For assay [3] the target is unchanged. The assay is described as follows: SPR blocking: 5 nM Activin A + 0.94 nM binder over hActRIIB-hFc (Control 4) surface.
Assay [4] has the same target. The assay is described as follows: SPR blocking: 5 nM Activin A + 60 nM binder over hActRIIB-hFc (Control 4) surface.
For assay [5] the target is unchanged. The assay is described as follows: SPR blocking: 5 nM Activin A + 7.50 nM binder over hActRIIB-hFc (Control 4) surface.
For assay [6] the target is unchanged. Kind of assay: SPR blocking: 5 nM Activin A + 0.00 nM binder over hActRIIB-hFc (Control 4) surface.
The target is the same in assay [7]. The assay is described as follows: SPR blocking: 5 nM Activin A + 15 nM binder over hActRIIB-hFc (Control 4) surface.
The target is the same in assay [8]. The assay is described as follows: SPR blocking: 5 nM Activin A + 1.88 nM binder over hActRIIB-hFc (Control 4) surface.
Assay [9] shares this target. The assay is described as follows: SPR blocking: 5 nM Activin A + 3.75 nM binder over hActRIIB-hFc (Control 4) surface.
For assay [10], the target named is Activin A (homodimer of two inhibin betaA subunits) (human) (UniProt P08476). Kind of assay: cell-based or functional assay.
Activin A (homodimer of two inhibin betaA subunits) (human), sequence (P08476 311-426 limits assumed): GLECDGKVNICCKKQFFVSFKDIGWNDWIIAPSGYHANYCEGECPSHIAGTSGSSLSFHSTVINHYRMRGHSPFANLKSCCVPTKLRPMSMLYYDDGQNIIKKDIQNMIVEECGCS

Activin A (R&D Systems, #338-AC) (human), sequence (P08476 311-426 limits assumed): as above

The substance “Activin AB (heterodimer of one betaA subunit and one betaB subunit) (from UniProt P08476 311-426; P09529 293-407) (ligand)” returned an activation of the A204/CAGAx12-Luc cell line (Smad 2/3-luciferase reporter), EC50 in assay [1] of 0.019 nM.

With “Activin AC (heterodimer of one betaA subunit and one betaC subunit) (from UniProt P55103 237-352) (ligand)”, the activation of the A204/CAGAx12-Luc cell line (Smad 2/3-luciferase reporter), EC50 in [1] stood at 4.4 nM.

Turning to “Control 3 (murine anti-Activin A monoclonal antibody from R&D Systems, catalog number MAB3381)”, the % bound RU w/ no inhibitor in assay [2] amounted to 1%; in assay [3], 135%; in [4] it was 2%; in assay [5] it was 33%; in assay [6], 100%; in assay [7], 2%. Also, the values for the % bound RU w/ no inhibitor in [8] and in [9] were 133% and 120%, respectively.

In [1], “GDF11 (from UniProt O95390 299-407) (ligand)” came in with an activation of A204/CAGAx12-Luc cells, EC50 of 0.084 nM and an activation of A204/CAGAx12-Luc cells, EC50 (separate day) of 0.166 nM.

In the case of isotype control antibody, the % bound RU w/ no inhibitor in assay [2] came to 111%; in assay [3] it was 105%; in [4], 115%; in [5], 107%; in assay [6], 100%; in assay [7], 110%. Besides, the % bound RU w/ no inhibitor in [8] turned out to be 105%; in assay [9] it was 104%.

Consider isotype control antibody (Example 7), for which, in assay [10], the action potential duration, cardiomyocytes chronically treated with 1 nM activin A plus isotype control was found to be 0.56 s; the calcium flux falling time, cardiomyocytes treated with activin A plus isotype control came to 0.75 s; the calcium flux rising time, cardiomyocytes treated with activin A plus isotype control amounted to 0.36 s; the field potential amplitude, cardiomyocytes chronically exposed to activin A plus 25 nM isotype control came out at 42.9 µV. In addition, in [10], the field potential downstroke velocity, cardiomyocytes exposed to activin A plus 25 nM isotype control came to 0.019 V/sec and the peak calcium handling amplitude, cardiomyocytes treated with activin A plus isotype control came out at 484 RFU.
